Data on two molecules can be found in patent US20160200782A1 (MOERAE MATRIX, published 2016).

Some targets named below: MRCKα(h) (human, UniProt Q5VT25 1-473, limits assumed); PAK2(h) (human, UniProt Q13177 1-524, limits assumed); PKBα(h) (human, UniProt P31749 1-480, limits assumed); Yes(h) (human, UniProt P07947 1-543, limits assumed); NEK7(h) (human, UniProt Q8TDX7 1-302); Pim-1(h) (human, UniProt P11309 1-313); MAPKAP-K3(h) (human, UniProt Q16644 1-382, limits assumed); Plk3(h) (human, UniProt Q9H4B4 1-646, limits assumed); Rsk3(h) (human, UniProt Q15349 1-733, limits assumed); mTOR/FKBP12(h) (human, UniProt P42345 1362-2549; P62942 1-108); HIPK1(h) (human, UniProt Q86Z02 158-555, limits assumed); EGFR(L861Q)(h) (human, UniProt P00533 696-1210, limits assumed).

Common to all, as to assay: cell-based or functional assay
For the next test, the target named is T1, Fms(h) (human, UniProt P07333 538-972, limits assumed).
T1 sequence (looked up): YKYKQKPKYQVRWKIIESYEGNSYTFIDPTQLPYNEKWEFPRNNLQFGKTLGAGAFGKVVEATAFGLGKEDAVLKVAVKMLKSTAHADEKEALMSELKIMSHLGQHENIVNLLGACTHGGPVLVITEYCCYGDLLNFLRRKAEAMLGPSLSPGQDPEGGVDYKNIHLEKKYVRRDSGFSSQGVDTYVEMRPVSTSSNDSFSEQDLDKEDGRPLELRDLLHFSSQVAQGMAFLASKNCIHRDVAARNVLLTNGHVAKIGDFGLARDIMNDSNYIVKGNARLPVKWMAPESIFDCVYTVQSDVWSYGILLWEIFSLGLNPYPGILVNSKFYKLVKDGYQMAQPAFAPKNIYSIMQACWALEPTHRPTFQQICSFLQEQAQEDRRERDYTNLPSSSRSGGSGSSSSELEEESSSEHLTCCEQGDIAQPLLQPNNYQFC

In a further test the target is T2, Haspin(h) (human, UniProt Q8TF76 471-798, limits assumed).
T2 sequence (looked up): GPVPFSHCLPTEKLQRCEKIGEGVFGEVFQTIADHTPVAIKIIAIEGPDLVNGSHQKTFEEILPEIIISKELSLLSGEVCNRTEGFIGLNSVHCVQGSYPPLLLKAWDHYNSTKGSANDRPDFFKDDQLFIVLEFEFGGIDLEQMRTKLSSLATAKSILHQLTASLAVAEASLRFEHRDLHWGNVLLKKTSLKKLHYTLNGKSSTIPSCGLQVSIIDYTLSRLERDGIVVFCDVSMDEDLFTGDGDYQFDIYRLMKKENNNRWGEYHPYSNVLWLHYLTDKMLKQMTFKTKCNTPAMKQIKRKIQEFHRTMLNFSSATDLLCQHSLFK

In a further test the target is T3, NEK11(h) (human, UniProt Q8NG66 1-645, limits assumed).
T3 sequence (looked up): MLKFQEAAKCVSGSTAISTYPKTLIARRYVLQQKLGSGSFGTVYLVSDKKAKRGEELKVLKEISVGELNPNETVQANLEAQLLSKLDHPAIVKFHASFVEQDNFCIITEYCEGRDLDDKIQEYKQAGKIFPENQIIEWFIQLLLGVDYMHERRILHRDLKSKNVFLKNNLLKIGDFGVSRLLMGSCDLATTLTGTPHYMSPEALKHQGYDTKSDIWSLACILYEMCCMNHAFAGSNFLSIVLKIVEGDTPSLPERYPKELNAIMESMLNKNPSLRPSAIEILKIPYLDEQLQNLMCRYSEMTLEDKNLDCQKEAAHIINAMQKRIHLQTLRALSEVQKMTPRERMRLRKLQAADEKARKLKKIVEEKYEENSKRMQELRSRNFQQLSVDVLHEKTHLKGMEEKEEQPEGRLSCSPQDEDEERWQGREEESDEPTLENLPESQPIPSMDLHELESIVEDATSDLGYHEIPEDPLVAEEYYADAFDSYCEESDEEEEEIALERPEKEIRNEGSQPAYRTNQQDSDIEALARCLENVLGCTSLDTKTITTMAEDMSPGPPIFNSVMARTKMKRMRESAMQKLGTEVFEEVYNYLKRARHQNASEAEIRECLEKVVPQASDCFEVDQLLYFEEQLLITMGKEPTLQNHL
Further: test concentration or dose not given here.

B1: MMI-0300 (peptide)
peptide: FAKLAARLYRKALARQLGVAA
On to B1, for which the “% activity” value is 104% with MRCKα(h); 65% with PAK2(h); 57% in the test with PKBα(h); 67% with Yes(h); 45% with Fms(h); 84% in the test with NEK7(h). For the same molecule, the “% activity” value with Pim-1(h) is 8%; in the test with MAPKAP-K3(h), 3%; with Plk3(h), 127%; in the test with Rsk3(h), 76%; in the test with mTOR/FKBP12(h), 145%; with HIPK1(h) it was 74%. Besides, the “% activity” value was 48% with Haspin(h), 25% with EGFR(L861Q)(h) and 53% with NEK11(h).

B2: MMI-0400 (peptide)
peptide: KAFAKLAARLYRKALARQLGVAA
As for B2, the “% activity” value in the test with MRCKα(h) amounted to 97%; in the test with PAK2(h), 59%; with PKBα(h), 67%; with Yes(h), 14%; with Fms(h) it was 37%; in the test with NEK7(h), 87%. For the same molecule, the “% activity” value with Pim-1(h) was determined as 7%; in the test with MAPKAP-K3(h), 7%; with Plk3(h), 129%; with Rsk3(h), 71%; in the test with mTOR/FKBP12(h) it was 125%; with HIPK1(h), 91%. The “% activity” value turned out to be 36% with Haspin(h), 22% with EGFR(L861Q)(h) and 33% in the test with NEK11(h).
